This note sets out measurements from patent EP4678184A2 (CREATE Medicines, Inc., dated 2026).

The experiment addresses T1, Alexa488 conjugated human CD5 protein (human, UniProt P06127 25-372, limits assumed, Alexa488 conjugated (site not stated)).
T1 sequence (looked up): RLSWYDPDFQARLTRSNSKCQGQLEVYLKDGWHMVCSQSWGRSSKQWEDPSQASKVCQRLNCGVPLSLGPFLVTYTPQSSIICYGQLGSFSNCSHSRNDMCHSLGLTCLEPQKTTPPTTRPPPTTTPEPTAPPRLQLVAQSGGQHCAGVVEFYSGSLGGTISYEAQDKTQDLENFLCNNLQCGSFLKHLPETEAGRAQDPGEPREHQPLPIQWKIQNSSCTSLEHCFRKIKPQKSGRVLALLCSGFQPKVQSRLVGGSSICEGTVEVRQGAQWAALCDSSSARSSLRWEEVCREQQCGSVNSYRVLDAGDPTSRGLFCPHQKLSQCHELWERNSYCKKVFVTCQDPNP
In words: flow cytometry, labelled soluble CD5 on electroporated CD14+ monocytes, 24, 48 and 72 hours post thaw. On the technique in general: A flow cytometer gives signals particle by particle.

B1: CD5-CAR (anti-CD5 chimeric antigen receptor on electroporated CD14+ monocytes, Example 15) (receptor, not shown: small tags and cut ends)
chain: EIQLVQSGGGLVKPGGSVRISCAASGYTFTNYGMNWVRQAPGKGLEWMGWINTHTGEPTYADSFKGRFTFSLDDSKNTAYLQINSLRAEDTAVYFCTRRGYDWYFDVWGQGTTVTVSSGGGGSGGGGSGGGGSDIQMTQSPSSLSASVGDRVTITCRASQDINSYLSWFQQKPGKAPKTLIYRANRLESGVPSRFSGSGSGTDYTLTISSLQYEDFGIYYCQQYDESPWTFGGGTKLEIK
notes: also called CD5-CAR monocytes
Turning to B1, the binding result is listed as “binds”.
